According to publication PMC11243334, “Synthesis and Evaluation of the First ^68Ga-Labeled C-Terminal Hydroxamate-Derived Gastrin-Releasing Peptide Receptor-Targeted Tracers for Cancer Imaging with Positron Emission Tomography” (Molecules, 2024):
Read-outs that look alike come from different tables or passages of the source.

What was measured:
GRPR [1] = target: T1, GRPR (Homo sapiens, UniProt P30550); test: Fluorometric intracellular calcium release assay in PC-3 cells; assay type: cell-based; conditions: for Ca2+ mobilization, relative fluorescence units (RFUs = max − min): 50 nM ligand, FLIPR Calcium 6, signal acquired 2 min, n = 3
T1 construct: host or cells: PC-3 human prostate adenocarcinoma cells
T1 sequence (P30550 whole entry): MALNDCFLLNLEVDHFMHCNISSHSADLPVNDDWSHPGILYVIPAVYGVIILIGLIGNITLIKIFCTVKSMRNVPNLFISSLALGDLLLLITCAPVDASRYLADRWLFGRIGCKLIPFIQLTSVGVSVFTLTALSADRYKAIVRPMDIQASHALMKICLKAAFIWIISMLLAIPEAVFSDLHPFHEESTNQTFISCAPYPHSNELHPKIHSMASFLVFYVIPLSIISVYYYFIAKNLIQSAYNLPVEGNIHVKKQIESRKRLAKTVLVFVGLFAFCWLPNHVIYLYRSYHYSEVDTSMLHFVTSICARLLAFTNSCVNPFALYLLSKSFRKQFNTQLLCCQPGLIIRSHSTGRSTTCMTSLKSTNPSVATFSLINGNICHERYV
Method: The antagonist/agonist characteristics of Ga-LW02075 and Ga-LW02050 were determined following previously published procedures. A 96-well clear-bottomed black plate was seeded with 5 × 10^4 PC-3 cells/well in 100 μL growth media 24 h prior to the assay. A calcium-sensitive dye (FLIPR Calcium 6 assay kit from Molecular Devices, San Jose, CA, USA) dissolved in the loading buffer (100 μL/well) was added into the plate followed by 1 h incubation at 37 °C. Then, the plate was transferred into a FlexStation 3 microplate reader (Molecular Devices, San Jose, CA, USA) to record the fluorescent signals. Ga-complexed SB3 derivatives (50 nM), [D-Phe^6,Leu-NHEt^13,des-Met^14]Bombesin(6-14) (50 nM, antagonist control), bombesin (50 nM, agonist control), adenosine triphosphate (ATP, 50 nM, positive control), or DPBS (blank control) were added. The fluorescent signals were acquired for 2 min (λEx = 485 nm; λEm = 525 nm; n = 3). The relative fluorescent units (RFUs = max − min) were calculated to determine the agonistic/antagonistic characteristics of the tested ligands.

[2] = Ex vivo biodistribution in PC-3 tumor-bearing mice; conditions: male, mouse, iv, total radioactivity, 1 h post injection, mean ± SD, n = 4; for tissue uptake at 1 h: NOD.Cg-Rag1^tm1Mom Il2rg^tm1Wjl/SzJ (NRG); for tissue to tissue ratio at 1 h: NOD.Cg-Rag1tm1Mom Il2rgtm1Wjl/SzJ (NRG)
Method: Biodistribution studies were conducted for ^68Ga-labeled SB3, LW02075 and LW02050 in PC-3 tumor-bearing mice (n = 4).
(§1) Imaging and biodistribution studies were performed on male NOD.Cg-Rag1^tm1Mom Il2rg^tm1Wjl/SzJ (NRG) mice following previously published procedures. The experiments were conducted following the guidelines established by the Canadian Council on Animal Care and approved by Animal Ethics Committee of the University of British Columbia. The mice were sedated (2.5% isoflurane in oxygen) and injected with 5 × 10^6 PC-3 cells (100 µL; 1:1 PBS/Matrigel) subcutaneously behind the left shoulder. The tumor-bearing mice were used for PET/CT imaging and biodistribution studies when the tumor grew to 5–8 mm in diameter.
For biodistribution studies, the mice were injected with the radiotracer (~2–4 MBq), as described above. Blocking of [^68Ga]Ga-LW02075 and [^68Ga]Ga-LW02050 was conducted by co-injection with 100 μg nonradioactive Ga-LW02075 and Ga-LW02050, respectively, through a lateral caudal tail vein under anaesthesia. At 1 h post injection, the mice were sedated and euthanized by CO2 inhalation. Blood was collected via cardiac puncture, and organs/tissues of interest were collected, weighed, and counted on a Perkin Elmer (Waltham, MA, USA) Wizard2 2480 automatic gamma counter.

physchem = conditions: n-octanol/DPBS, pH 7.4
Method: LogD7.4 values of [^68Ga]Ga-LW02075, [^68Ga]Ga-LW02050, and [^68Ga]Ga-SB3 were measured via the shake flask method. An aliquot of the ^68Ga-labeled tracer (~1.85 MBq) was added to a 15 mL falcon tube containing 3 mL of n-octanol and 3 mL of DPBS (pH 7.4) followed by 1 min of vortex (n = 3). After that, the mixture was centrifuged at 5000 rpm for 10 min, and samples of the n-octanol (1 mL) and buffer (1 mL) layers were collected and counted on a Perkin Elmer (Waltham, MA, USA) Wizard2 2480 automatic gamma counter. The LogD7.4 values of [^68Ga]Ga-LW02075, [^68Ga]Ga-LW02050, and [^68Ga]Ga-SB3 were calculated following the equation: LogD7.4 = log10[(counts in the n-octanol phase)/(counts in the buffer phase)].

PC-3 tumor xenografts = test: PET/CT imaging in mice bearing PC-3 tumor xenografts; assay type: in vivo; conditions: 1 h post injection, mice
Method: as §1
PET/CT imaging experiments were performed on a Siemens (Knoxville, TN, USA) Inveon micro PET/CT scanner. Each tumor-bearing mouse was injected with ~3–6 MBq of ^68Ga-labeled tracer through a lateral caudal tail vein under anaesthesia. At around 50 min post injection, a 10 min CT scan was obtained first for localization and attenuation correction after segmentation for reconstructing the PET image, followed by a 10 min static PET scan.

GRPR [3] = conditions: ref 14 (Devin et al.); cited from earlier work
Text: Most of the reported GRPR-targeted agonist and antagonist sequences contain a C-terminal amide. […] To the best of our knowledge, no GRPR-targeted radioligands containing a C-terminal hydroxamate have ever been reported. Therefore, the goal of this study was to evaluate the potential of C-terminal hydroxamate- ...

GRPR [4] = target: T1, GRPR; test: In vitro competition binding assay, displacement of [125I-Tyr4]Bombesin from PC-3 cells; conditions: GRPR-expressing PC-3 cells, 0.01 nM [125I-Tyr4]Bombesin, 1 h at 37 °C, ligand 10 μM to 1 pM, n = 3
Method: The Ki values of Ga-LW02075, Ga-LW02050, and Ga-SB3 were measured using GRPR-expressing PC-3 prostate cancer cells via a cell-based competition binding assay. Ga-SB3, Ga-LW02075, and Ga-LW02050 inhibited the binding of [^125I-Tyr^4]Bombesin towards PC-3 cells in a dose-dependent manner (Figure 2).
Inhibition constants (Ki) of Ga-SB3, Ga-LW02075, and Ga-LW02050 toward GRPR were measured by in vitro competition binding assay following previously published procedures. The assays were conducted in triplicate with varied concentrations (10 μM to 1 pM) of Ga-SB3, Ga-LW02075, and Ga-LW02050. Briefly, 2 × 10^5 cells/well of PC-3 cells were seeded in 24-well poly-D-lysine plates 24 h prior to the assay. The growth medium was replaced with 400 μL of reaction medium (RPMI 1640 containing 2 mg/mL bovine serum albumin (BSA) and 20 mM HEPES), followed by 1 h incubation at 37 °C. The tested ligands in 50 μL reaction medium and 0.01 nM [^125I-Tyr^4]Bombesin in 50 μL reaction medium were added into the wells, and then incubated at 37 °C with moderate agitation for 1 h. […] Data analysis was performed using nonlinear regression with GraphPad (San Diego, CA, USA) Prism 10 software (Version 10.1.1).

Q: For `Nc1ncnc2c1ncn2[C@@H]1O[C@H](COP(=O)(O)OP(=O)(O)OP(=O)(O)O)[C@@H](O)[C@H]1O` [ATP, adenosine triphosphate], which “Ca2+ mobilization, relative fluorescence units (RFUs = max − min)” value (GRPR [1]) is on record?
A: The value was 271 ± 24.4 RFUs.

Q: For `CCNC(=O)[C@H](CC(C)C)NC(=O)[C@H](Cc1c[nH]cn1)NC(=O)CNC(=O)[C@@H](NC(=O)[C@H](C)NC(=O)[C@H](Cc1c[nH]c2ccccc12)NC(=O)[C@H](CCC(N)=O)NC(=O)[C@@H](Cc1ccccc1)NC(=O)COCC(=O)Nc1ccc(CNC(=O)CN2CCN(CC(=O)O)CCN(CC(=O)O)CCN(CC(=O)O)CC2)cc1)C(C)C` [[^68Ga]Ga-SB3, [^68Ga]Ga-DOTA-pABzA-DIG-D-Phe-Gln-Trp-Ala-Val-Gly-His-Leu-NHEt, metal not drawn, reference compound], which tissue uptake at 1 h ([2]; PC-3 tumor, read-out: PC-3 tumor uptake) is on record?
A: Its tissue uptake at 1 h is 6.98 ± 1.36 %ID/g.

Q: And the tissue uptake at 1 h ([2]; adrenal glands, read-out: Adrenal glands uptake)?
A: The tissue uptake at 1 h was 2.07 ± 0.66 %ID/g.

Q: What about the tissue uptake at 1 h ([2]; blood, read-out: Blood uptake) of the same compound?
A: Its tissue uptake at 1 h is 0.5 ± 0.09 %ID/g.

Q: What about the tissue uptake at 1 h ([2]; bone, read-out: Bone uptake) of the same compound?
A: The tissue uptake at 1 h was 0.12 ± 0.01 %ID/g.

Q: And the tissue uptake at 1 h ([2]; brain, read-out: Brain uptake)?
A: The tissue uptake at 1 h was 0.04 ± 0.01 %ID/g.

Q: What about the tissue uptake at 1 h ([2]; fat, read-out: Fat uptake) of the same compound?
A: Its tissue uptake at 1 h is 0.05 ± 0.01 %ID/g.

Q: And the tissue uptake at 1 h ([2]; heart, read-out: Heart uptake)?
A: Its tissue uptake at 1 h is 0.16 ± 0.02 %ID/g.

Q: And the tissue uptake at 1 h ([2]; kidneys, read-out: Kidneys uptake)?
A: The tissue uptake at 1 h was 2.26 ± 0.26 %ID/g.

Q: And the tissue uptake at 1 h ([2]; large intestine, read-out: Large intestine uptake)?
A: Its tissue uptake at 1 h is 2.2 ± 0.89 %ID/g.

Q: And the tissue uptake at 1 h ([2]; liver, read-out: Liver uptake)?
A: Its tissue uptake at 1 h is 2.1 ± 0.45 %ID/g.

Q: And the tissue uptake at 1 h ([2]; lungs, read-out: Lungs uptake)?
A: Its tissue uptake at 1 h is 1.18 ± 0.23 %ID/g.

Q: What about the tissue uptake at 1 h ([2]; muscle, read-out: Muscle uptake) of the same compound?
A: The tissue uptake at 1 h was 0.18 ± 0.1 %ID/g.

Q: What about the tissue uptake at 1 h ([2]; pancreas, read-out: Pancreas uptake) of the same compound?
A: The tissue uptake at 1 h was 37.3 ± 6.9 %ID/g.

Q: And the tissue uptake at 1 h ([2]; small intestine, read-out: Small intestine uptake)?
A: Its tissue uptake at 1 h is 6.03 ± 1.07 %ID/g.

Q: What about the tissue uptake at 1 h ([2]; spleen, read-out: Spleen uptake) of the same compound?
A: Its tissue uptake at 1 h is 0.33 ± 0.17 %ID/g.

Q: And the tissue uptake at 1 h ([2]; stomach, read-out: Stomach uptake)?
A: Its tissue uptake at 1 h is 1.42 ± 0.57 %ID/g.

Q: And the tissue uptake at 1 h ([2]; testes, read-out: Testes uptake)?
A: The tissue uptake at 1 h was 0.13 ± 0.01 %ID/g.

Q: And the tissue to tissue ratio at 1 h ([2]; tumor and bone, read-out: Tumor/bone uptake ratio)?
A: The tissue to tissue ratio at 1 h was 61 ± 15.5.

Q: And the tissue to tissue ratio at 1 h ([2]; tumor and kidney, read-out: Tumor/kidney uptake ratio)?
A: Its tissue to tissue ratio at 1 h is 3.09 ± 0.51.

Q: And the tissue to tissue ratio at 1 h ([2]; tumor and muscle, read-out: Tumor/muscle uptake ratio)?
A: Its tissue to tissue ratio at 1 h is 48.2 ± 24.9.

Q: What about the tissue to tissue ratio at 1 h ([2]; tumor and pancreas, read-out: Tumor/pancreas uptake ratio) of the same compound?
A: The tissue to tissue ratio at 1 h was 0.19 ± 0.03.

Q: And the tissue to tissue ratio at 1 h ([2]; tumor and whole blood, read-out: Tumor/blood uptake ratio)?
A: Its tissue to tissue ratio at 1 h is 14.4 ± 3.88.

Q: What about the logD (physchem) of the same compound?
A: The logD was -2.47 ± 0.09.

Q: What about the “Excretion pathway in PET images” value (PC-3 tumor xenografts) of the same compound?
A: The value was “excreted primarily through the renal pathway”.

Q: What about the “Pancreas in PET images” value (PC-3 tumor xenografts) of the same compound?
A: The value was “high pancreas uptake”.

Q: For “D-Phe-Gln-Trp-Ala-Val-Gly-His-Leu-NHOH [C-terminal hydroxamate-derived GRPR-targeted antagonist reported by Devin et al]”, which Ki (GRPR [3]) is on record?
A: Its Ki is 5.8 nM.

Q: For “Ga-DOTA-Pip-D-Phe-Gln-Trp-Ala-Val-Gly-His-Leu-NHOH [Ga-LW02050]”, which “Ca2+ mobilization, relative fluorescence units (RFUs = max − min)” value (GRPR [1]) is on record?
A: The value was 25.8 ± 7.95 RFUs.

Q: And the Agonist/antagonist characteristics (GRPR [1]; 50 nM, calcium release assay)?
A: The Agonist/antagonist characteristics was “antagonist”.

Q: What about the Ki (GRPR [4]) of the same compound?
A: Its Ki is 8.53 ± 1.52 nM.

Q: For “Ga-DOTA-pABzA-DIG-D-Phe-Gln-Trp-Ala-Val-Gly-His-Leu-NHEt [Ga-SB3, reference compound]”, which Ki (GRPR [4]) is on record?
A: The Ki was 1.2 ± 0.31 nM.

Q: Which “Ca2+ mobilization, relative fluorescence units (RFUs = max − min)” value (GRPR [1]) does the source give for “[D-Phe^6,Leu-NHEt^13,des-Met^14]Bombesin(6-14)” here?
A: Its value is 47.2 ± 6.61 RFUs.

Q: For bombesin, which “Ca2+ mobilization, relative fluorescence units (RFUs = max − min)” value (GRPR [1]) is on record?
A: The value was 371 ± 65.0 RFUs.
